According to paper PMC10641069, “Intra- and inter-molecular regulation by intrinsically-disordered regions governs PUF protein RNA binding” (Nature Communications, 2023):
Substitutions are numbered along the chain they refer to. Names may count otherwise. “And” between values parts separate entries of the source, which are not always exact repeats. Equal entries are not always repeated. Where two headings read alike, the source gives them in different places.

B1: FBF-2 RBD + CT: C. elegans FBF-2 RBD plus C-terminal tail, residues 164-632 (protein)
chain: SNNVLPTWSLDSNGEMRSRLSLSEVLDSGDLMKFAVDKTGCQFLEKAVKGSLTSYQKFQLFEQVIGRKDDFLKLSTNIFGNYLVQSVIGISLATNDDGYTKRQEKLKNFISSQMTDMCLDKFACRVIQSSLQNMDLSLACKLVQALPRDARLIAICVDQNANHVIQKVVAVIPLKNWEFIVDFVATPEHLRQICSDKYGCRVVQTIIEKLTADSMNVDLTSAAQNLRERALQRLMTSVTNRCQELATNEYANYIIQHIVSNDDLAVYRECIIEKCLMRNLLSLSQEKFASHVVEKAFLHAPLELLAEMMDEIFDGYIPHPDTGKDALDIMMFHQFGNYVVQCMLTICCDAVSGRRQTKEGGYDHAISFQDWLKKLHSRVTKERHRLSRFSSGKKMIETLANLRSTHPIYELQSSGHDSFKTDYFSTASEHDGPELEKNGIEEGSLMLEPRSNKSSVSVKFSSSGSHGDD
modifications: left off: His6-SUMO, N-terminal, cleaved
B2: FBF-2 RBD + CT L610A: FBF-2 RBD + CT mutated in the C-terminal tail (L610A) (protein)
chain: B1 chain with L447A
modifications: left off: His6-SUMO, N-terminal, cleaved
B3: FBF-2 RBD + CT Loop6A: FBF-2 RBD + CT with E592A, D594A, E597A, E599A, E604A, E605A (protein)
chain: B1 chain with E429A, D431A, E434A, E436A, E441A, E442A
modifications: left off: His6-SUMO, N-terminal, cleaved
notes: FBF-2 RBD + CT with E592A, D594A, E597A, E599A, E604A, E605A
B4: FBF-2 RBD: FBF-2 RNA-binding domain, residues 164-575, lacking the C-terminal tail (protein)
chain: SNNVLPTWSLDSNGEMRSRLSLSEVLDSGDLMKFAVDKTGCQFLEKAVKGSLTSYQKFQLFEQVIGRKDDFLKLSTNIFGNYLVQSVIGISLATNDDGYTKRQEKLKNFISSQMTDMCLDKFACRVIQSSLQNMDLSLACKLVQALPRDARLIAICVDQNANHVIQKVVAVIPLKNWEFIVDFVATPEHLRQICSDKYGCRVVQTIIEKLTADSMNVDLTSAAQNLRERALQRLMTSVTNRCQELATNEYANYIIQHIVSNDDLAVYRECIIEKCLMRNLLSLSQEKFASHVVEKAFLHAPLELLAEMMDEIFDGYIPHPDTGKDALDIMMFHQFGNYVVQCMLTICCDAVSGRRQTKEGGYDHAISFQDWLKKLHSRVTKERHRLSRFSSGKKMIETLANLRSTHPIYELQ
modifications: left off: His6-SUMO, N-terminal, cleaved

Tests used:
gld-1 FBEa RNA [1] = test: Electrophoretic mobility shift assay (EMSA), RNA binding; design: species or system C. elegans
Protocol: A 3′-Cy5-labeled synthetic RNA was ordered from IDT (gld-1 FBEa, 5′-[…]-3′). The FBF-2 proteins were serially diluted 2-fold from the highest concentration of 10 µM in the buffer used for gel filtration (20 mM HEPES pH 7.4, 150 mM NaCl, and 0.5 mM TCEP). 10 µl of the serially diluted protein samples were mixed with 10 µl RNA (10 nM) in a 2× buffer of 10 mM HEPES pH 7.4, 0.01% (v/v) Tween 20, 0.1 mg/ml BSA, 0.1 mg/ml yeast tRNA, and 2 mM DTT. For experiments in the presence of LST-1, LST-1 proteins at constant concentration were preincubated with FBF-2 at 4 °C for 2 h. The LST-1 concentrations were chosen based on their Kd’s for interaction with FBF-2. The final FBF-2 concentrations ranged from 5000 nM to 0.6 nM, and the LST-1 A or B concentrations were constant at 150 μM or 50 μM, respectively. The protein-RNA mixtures were incubated at 4 °C overnight. The samples were resolved on 10% TBE polyacrylamide gels run at constant voltage (100 V) with 1× TBE buffer at room temperature for 35 min. The gels were scanned and visualized with a Typhoon FLA 9500 imager using the Cy5 channel (excitation wavelength 635 nm). Band intensities were quantified with ImageQuant 5.2 (Cytiva). The data were fit with GraphPad Prism (version 9.2.0) using nonlinear regression with a one-site specific binding model. Mean Kd’s and standard error of the mean (SEM) from three or more technical replicates are reported (Supplementary Table 4). Full scan images for the replicates shown in the main figures and gel images for all replicates are included in a source data file.

[2] = Melting temperature of FBF-2 proteins; type: physicochemical; settings: for thermal stability: in words, vs RBD alone or vs RBD + CT
Protocol: Mutants of FBF-2 RBD + CT: Y479A (5′-[…]), L610A (5′-[…]), and Loop6A (E592A, D594A, E597A, E599A, E604A, E605A; 5′-[…]) were generated by site-directed mutagenesis with the primers indicated. Plasmid sequences were verified by DNA sequencing (Azenta Life Sciences). Protein variants were expressed and purified like wild type proteins. Melting temperatures of wild type and mutant proteins were assessed by differential scanning […]. Reaction mixtures (total volume of 20 μl) contained ~0.3 mg/ml FBF-2 proteins and Sypro Orange dye (1:1000 dilution) (Sigma). Fluorescent intensity was collected from 25 °C to 95 °C (3 °C increment/min) with a real time PCR instrument (Applied Biosystems™ QuantStudio 7 Flex System) using excitation and emission wavelengths of 470 nm and 586 nm, respectively. Protein Thermal Shift^TM software (Applied Biosystems, version 1.4) was used to analyze protein melting curves and calculate melting temperatures (Tm).

gld-1 FBEa RNA [3] = test: Surface plasmon resonance, RNA-binding kinetics; design: species or system C. elegans
Protocol: Kinetics of FBF-2 binding to the gld-1 FBEa RNA were measured using a 2-channel OpenSPR instrument (Nicoya). A 3′-biotin-labeled synthetic RNA was ordered from Horizon Discovery (gld-1 FBEa, 5′-AUCAUGUGCCAUACA-biotin-3′). The 3′-biotinylated RNA was immobilized on streptavidin-treated biotin sensor chips (Nicoya). All experiments were performed at 20 °C with a buffer of 20 mM HEPES, pH 7.4, 150 mM NaCl, and 2 mM DTT. SPR data were collected using OpenSPR (Nicoya, version 4.3). FBF-2 proteins were injected with a flow rate of 20 µl/min. Data were obtained at five different protein concentrations (25, 50, 100, 200, and 400 nM for wild type RBD + CT; 12.5, 25, 50, 100, and 200 nM for RBD + CT mutants and wild type RBD). Sensor chips were regenerated using 0.05% or 0.1% (v/v) SDS. For each experiment, five binding curves were simultaneously fit using a 1:1 binding model with the TraceDrawer software (Ridgeview Instruments, version 1.9.1). Mean values and standard deviation were calculated from two technical replicates. Despite our efforts, the fit of the binding curves for the association phase of FBF-2 RBD and FBF-2 RBD + CT mutants is poorer than the fit for FBF-2 RBD + CT WT. The appearance of the curves is consistent with the derived kon and koff values, and importantly, the curve fit for the dissociation phase is better.

[4] = no LST-1, mean ± SEM of independent technical replicates (n = 3-5), 4 °C overnight, pH 7.4, Cy5-RNA 5′-AUCAUGUGCCAUAC-3′
[5] = mean ± SD, three technical replicates, ~0.3 mg/ml protein, Sypro Orange, 25 to 95 °C, fluorescence
[6] = derived from on/off rates, mean ± SD, two technical replicates
[7] = mean ± SD, two technical replicates, 20 °C, pH 7.4, 1:1 model

| Molecule | Kd (gld-1 FBEa RNA [1]; [4]) | Kd (gld-1 FBEa RNA [1]; no LST-1, replicate 1) | Kd (gld-1 FBEa RNA [1]; no LST-1, replicate 2) | Kd (gld-1 FBEa RNA [1]; no LST-1, replicate 3) | Kd (gld-1 FBEa RNA [1]; no LST-1, replicate 4) | Kd (gld-1 FBEa RNA [1]; pH 7.4) | thermal stability [2] | Tm [2, 5] | Tm ([2]; replicate 1) | Tm ([2]; replicate 2) | Tm ([2]; replicate 3) | Kd (gld-1 FBEa RNA [3]; [6]) | koff (gld-1 FBEa RNA [3]; [7]) | kon (gld-1 FBEa RNA [3]; [7]) | Kd (gld-1 FBEa RNA [3]; replicate 1) | kon (gld-1 FBEa RNA [3]; replicate 1) | koff (gld-1 FBEa RNA [3]; replicate 1, read-out: koff) | Kd (gld-1 FBEa RNA [3]; replicate 2) | kon (gld-1 FBEa RNA [3]; replicate 2) | koff (gld-1 FBEa RNA [3]; replicate 2, read-out: koff) | other results |
| --- | --- | --- | --- | --- | --- | --- | --- | --- | --- | --- | --- | --- | --- | --- | --- | --- | --- | --- | --- | --- | --- |
| B1 | 0.334 µM | 0.294 µM | 0.394 µM | 0.379 µM | 0.27 µM | 0.114 µM and 0.068 µM | increased thermal stability compared to the RBD alone | 40.24 ± 0.12 °C | 40.06 °C | 40.48 °C | 40.20 °C | 0.0651 ± 0.0211 µM | 0.00442 s⁻¹ | 71000 M⁻¹ s⁻¹ | 0.08 µM | 58700 M⁻¹ s⁻¹ | 0.00469 s⁻¹ | 0.05 µM | 82500 M⁻¹ s⁻¹ | 0.00414 s⁻¹ | fold weaker RNA-binding affinity (gld-1 FBEa RNA [1]; RBD + CT vs RBD alone): ~5 fold; Kd (gld-1 FBEa RNA [1]; with 150 μM LST-1 A, replicate 1): 0.111 µM; Kd (gld-1 FBEa RNA [1]; with 150 μM LST-1 A, replicate 2): 0.106 µM; fold faster off rate (gld-1 FBEa RNA [3]; RBD + CT vs RBD): ~ 5 fold |
| B2 | 0.051 µM | 0.038 µM | 0.032 µM | 0.066 µM | 0.03 µM | 0.082 ± 0.018 µM | melting temperature of the mutated protein near that of the RBD alone | 35.63 ± 0.05 °C | 35.72 °C | 35.58 °C | 35.58 °C | 0.0094 ± 0.0036 µM | 1.36 ± 0.11 x10^-3 s^-1 | 15.5 ± 4.7 x10^4 M^-1 s^-1 | 0.0119 µM | 121000 M⁻¹ s⁻¹ | 0.00144 s⁻¹ | 0.0068 µM | 188000 M⁻¹ s⁻¹ | 0.00128 s⁻¹ | Kd (gld-1 FBEa RNA [1]): 0.061 µM and 0.093 µM and 0.091 µM; Kd (gld-1 FBEa RNA [1]; no LST-1, replicate 5): 0.089 µM |
| B3 | 0.101 µM | 0.122 µM | 0.1 µM | 0.081 µM | – | 0.166 ± 0.021 µM | only modestly decreased the thermal stability | 37.58 ± 0.05 °C | 37.54 °C | 37.68 °C | 37.54 °C | 0.0095 ± 0.0042 µM | 0.94 ± 0.05 x10^-3 s^-1 | 10.9 ± 4.3 x10^4 M^-1 s^-1 | – | 78000 M⁻¹ s⁻¹ | 0.00097 s⁻¹ | – | 139000 M⁻¹ s⁻¹ | 0.00091 s⁻¹ | Kd (gld-1 FBEa RNA [1]): 0.142 µM and 0.175 µM and 0.18 µM |
| B4 | 0.07 µM | 0.075 µM | 0.062 µM | 0.098 µM | 0.044 µM | – | – | 36.32 ± 0.05 °C | 36.42 °C | 36.28 °C | 36.28 °C | 0.0066 ± 0.0023 µM | 0.00086 s⁻¹ | 136000 M⁻¹ s⁻¹ | 0.0082 µM | 120000 M⁻¹ s⁻¹ | 0.000979 s⁻¹ | 0.005 µM | 151000 M⁻¹ s⁻¹ | 0.00075 s⁻¹ | Kd (gld-1 FBEa RNA [1]; in the presence of 50 μM LST-1 B, mean ± SEM, n = 3, 4 °C overnight, pH 7.4): 0.176 µM; Kd (gld-1 FBEa RNA [1]; with 50 μM LST-1 B, replicate 1): 0.148 µM; Kd (gld-1 FBEa RNA [1]; with 50 μM LST-1 B, replicate 2): 0.18 µM; Kd (gld-1 FBEa RNA [1]; with 50 μM LST-1 B, replicate 3): 0.201 µM |
